How the values were obtained:
[1] = target: T1, human pancreatic cholesterol esterase (Homo sapiens, UniProt P19835); assay: Binding of 125I-cholesterol esterase to small intestine vesicles and its displacement; details: specific binding, 15 min at 37°, 10 mM Tris-Cl pH 7.2; read-out: KD of cholesterol esterase binding to small intestine vesicles (Scatchard analysis)
T1 construct: from tissue; host or cells: human pancreas (autopsy)
T1 sequence (P19835 21-753): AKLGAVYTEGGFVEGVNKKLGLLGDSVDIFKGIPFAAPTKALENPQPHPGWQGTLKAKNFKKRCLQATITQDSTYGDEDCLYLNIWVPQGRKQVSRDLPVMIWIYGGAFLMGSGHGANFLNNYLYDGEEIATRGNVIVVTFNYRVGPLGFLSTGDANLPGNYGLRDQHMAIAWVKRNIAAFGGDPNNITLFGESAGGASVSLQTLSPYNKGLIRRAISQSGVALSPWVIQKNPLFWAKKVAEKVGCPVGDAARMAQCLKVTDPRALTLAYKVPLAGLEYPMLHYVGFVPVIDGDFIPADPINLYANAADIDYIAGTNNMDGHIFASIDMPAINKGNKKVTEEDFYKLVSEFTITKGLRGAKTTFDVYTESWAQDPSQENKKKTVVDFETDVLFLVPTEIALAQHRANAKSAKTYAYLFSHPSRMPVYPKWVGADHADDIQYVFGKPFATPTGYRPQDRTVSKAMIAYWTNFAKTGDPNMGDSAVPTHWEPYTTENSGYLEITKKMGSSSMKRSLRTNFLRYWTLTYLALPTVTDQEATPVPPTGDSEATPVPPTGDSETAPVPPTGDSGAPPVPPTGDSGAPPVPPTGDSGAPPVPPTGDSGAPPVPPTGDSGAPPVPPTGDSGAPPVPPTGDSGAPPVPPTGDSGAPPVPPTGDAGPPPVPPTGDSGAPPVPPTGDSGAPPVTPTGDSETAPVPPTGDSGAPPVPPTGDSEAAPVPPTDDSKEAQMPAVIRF
Experimental: (§1) Vesicles contained 1.0 mg protein/ml, 30 ug total cholesterol/mg protein and 50 ug endogenous heparin/mg protein. ^125 I-cholesterol esterase (100K or 67K form) was added (0 to 400 pmol; 2,000 dpm/pmol) to 100 ug of protein of small intestine vesicles in 10 mM Tris-Cl, pH 7.2 for 15 min. at 37°. The concentration of offered ^125 I-cholesterol esterase varied between 10 nM and 1 uM. Experiments were performed utilizing 1% blotto to decrease nonspecific protein binding to the vesicles. After the 15 minute incubation at 37°, the reaction was quenched and the assay mixtures were filtered through wells of a Millipore system containing 0.2 micron pore filters presoaked in buffer. The filtrate was-collected to assess free (unbound) enzyme, and the filters were then immediately washed with 15 ml of cold buffer and counted for ^125 I. Total binding was defined as ^125 I-dpm bound to filter paper minus ^125 I-dpm detected in the same reaction without vesicles (background). Nonspecific binding (radioactivity bound to the vesicles in the presence of excess cold ligand) was quantitated as the amount of ^125 I-cholesterol esterase binding in the presence of a 1000-fold molar excess of unlabeled cholesterol esterase as described above. Specific binding is defined as the difference between total bound dpm and nonspecific-bound dpm (converted to moles bound by dividing by the SRA).

[2] = tested on: human pancreatic cholesterol esterase; assay: as above; details: in the presence of 5 mM taurocholate
Experimental: as §1

[3] = tested on: intestinal cells (colonic adenocarcinoma cells CaCo-2); assay: Cellular uptake of 3H-cholesterol from 3H-cholesterol oleate; format: cell-based; details: 5 nM human pancreatic cholesterol esterase (100 K), 1.5 mM taurocholate, no heparin
Experimental: For example, intestinal cells (colonic adenocarcinoma cells CaCo-2, American Type Cell Culture) were grown in T150 flasks in medium consisting of DME, 10% v/v fetal bovine serum, 50 ug/ml gentamicin and 2 mM sodium pyruvate. Uptake experiments were conducted using 10^5 intestinal cells in PBS buffer containing 5 mM CaCl2, pH 7.4 in the presence of 5 uM ^3 H-cholesterol oleate (SRA=50 dpm/pmol) embedded in phosphatidylcholine vesicles along with 10% v/v lipoprotein-depleted serum and 1.5 mM taurocholate. At time zero, 5 nM human pancreatic cholesterol esterase (100 K, homogeneous) was added to one set of flasks, an equivalent volume of buffer to another set, and 1 mg/ml final concentration bulk heparin together with 5 nM enzyme to a third set. At selected times, i.e., 0, 15, 30, 60, 120 and 480 min, medium was removed and the cells were washed with medium to allow quantitation of ^3 H-cholesterol uptake. In the absence of enzyme, cellular uptake of ^3 H-cholesterol was linear and occurred at a rate of 400 dpm/hr/10^5 cells. In the presence of cholesterol esterase, the rate of ^3 H-cholesterol uptake was 1,800 dpm/hr/10^5 cells.

[4] = target: T2, human pancreatic cholesterol esterase (100 kDa) (Homo sapiens, UniProt P19835); assay: Triolein hydrolysis by human pancreatic cholesterol esterase (100 kDa); format: biochemical; details: purified 100 kDa esterase, in the presence of 5 mM taurocholate
T2 construct: from tissue; host or cells: human pancreas (autopsy)
T2 sequence (P19835 21-753): T1 sequence (P19835 21-753)
Description: (§2) Human pancreatic cholesterol esterase (100 kDa) and human pancreatic triglyceride lipase (52 kDa) were purified to homogeneity (Examples 1 and 3), and their abilities to cleave triglycerides and cholesteryl esters were compared. […] Virtually the same results were found with cholesteryl esters; the 100 kDa enzyme cleaved cholesterol oleate at a rate at least 490-fold greater than that found for the 52 kDa triglyceride lipase.

[5] = Cleavage of cholesterol oleate, 100 kDa enzyme compared with 52 kDa triglyceride lipase; format: biochemical, human
Description: as §2

B1: Human pancreatic cholesterol esterase (100K form): 100,000 molecular weight form of human pancreatic cholesterol esterase purified over heparin agarose (protein, UniProt P19835 21-753, looked up)
Bile salt-activated lipase: T1 sequence (P19835 21-753)
Kd [1]: 100 nM | specific binding to vesicles retained [2]: 72% | rate of 3H-cholesterol uptake [3]: 1,800 dpm/hr/10^5 cells | rate of triolein hydrolysis [4]: 1,970 nmol/hr/g pancreas | rate of cholesterol oleate cleavage relative to the 52 kDa triglyceride lipase [5]: at least 490 fold

Reference: US5492822A, “Method for recovering purified 100,000 dalton molecular weight fraction of human pancreatic cholesterol esterase” (Lange, III; Louis G., priority 1995, dated 1996)
